From article PMC7039212 (The Journal of Cell Biology, 2019)

T1: GFP-CD2AP-1–475 aa (human, UniProt Q9Y5K6 1-475)
T1 sequence (looked up): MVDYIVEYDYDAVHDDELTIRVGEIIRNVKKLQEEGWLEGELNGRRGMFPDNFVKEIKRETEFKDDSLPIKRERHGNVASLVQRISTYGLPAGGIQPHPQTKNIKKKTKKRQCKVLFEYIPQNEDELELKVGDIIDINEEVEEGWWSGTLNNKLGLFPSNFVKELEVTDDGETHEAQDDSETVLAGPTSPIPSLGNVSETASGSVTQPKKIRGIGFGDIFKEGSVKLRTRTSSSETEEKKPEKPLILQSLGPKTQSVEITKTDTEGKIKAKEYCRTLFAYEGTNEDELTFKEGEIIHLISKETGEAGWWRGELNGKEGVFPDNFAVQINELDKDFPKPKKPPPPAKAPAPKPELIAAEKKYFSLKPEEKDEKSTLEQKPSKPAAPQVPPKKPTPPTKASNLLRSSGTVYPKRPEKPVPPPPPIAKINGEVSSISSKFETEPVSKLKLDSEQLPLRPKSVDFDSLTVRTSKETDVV

T2: GFP-CD2AP-1-335 aa (human, UniProt Q9Y5K6 1-335)
T2 sequence (looked up): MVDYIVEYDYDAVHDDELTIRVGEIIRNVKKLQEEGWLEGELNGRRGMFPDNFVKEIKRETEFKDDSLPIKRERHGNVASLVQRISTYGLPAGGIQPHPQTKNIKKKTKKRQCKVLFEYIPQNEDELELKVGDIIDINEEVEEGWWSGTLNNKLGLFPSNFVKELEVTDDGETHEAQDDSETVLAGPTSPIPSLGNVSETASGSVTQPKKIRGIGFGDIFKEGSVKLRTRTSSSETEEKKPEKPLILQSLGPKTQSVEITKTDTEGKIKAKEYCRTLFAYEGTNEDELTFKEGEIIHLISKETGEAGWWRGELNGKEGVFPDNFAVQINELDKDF


Assays:
Test in all cases: MST
[1] = target: Cy5-G-actin (UniProt P68135)
[2] = target: T1, GFP-CD2AP-1–475 aa
[3] = target: T2, GFP-CD2AP-1-335 aa

Chain of profilin (P07737 whole entry): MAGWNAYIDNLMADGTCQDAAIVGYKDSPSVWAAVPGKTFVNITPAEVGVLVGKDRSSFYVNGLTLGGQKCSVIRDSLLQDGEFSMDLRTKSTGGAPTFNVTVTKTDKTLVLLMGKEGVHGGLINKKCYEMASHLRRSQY

Molecule	Kd [1] [nM]	Kd [2] [nM]	Kd [3] [nM]
profilin (from UniProt P07737 1-140) (natural protein)	150	–	–
PI3K p85α 1–315 aa (domain or fragment, human, UniProt P27986 1-315, looked up) MSAEGYQYRALYDYKKEREEDIDLHLGDILTVNKGSLVALGFSDGQEARPEEIGWLNGYNETTGERGDFPGTYVEYIGRKKISPPTPKPRPPRPLPVAPGSSKTEADVEQQALTLPDLAEQFAPPDIAPPLLIKLVEAIEKKGLECSTLYRTQSSSNLAELRQLLDCDTPSVDLEMIDVHVLADAFKRYLLDLPNPVIPAAVYSEMISLAPEVQSSEEYIQLLKKLIRSPSIPHQYWLTLQYLLKHFFKLSQTSSKNLLNARVLSEIFSPMLFRFSAASSDNTENLIKVIEILISTEWNERQPAPALPPKPPKPT	–	940	350
